# According to patent US20030103903A1:
# Target: IgE of unfractionated patient serum (pool of patients' sera known to be reactive to the epitope peptide) (human)
# Test: inhibition: whole patients' sera pre-incubated with soluble peptide, then probing solid-phase E1 peptide
binder,measurement,value
QGLRGEEMEEMV [soluble form of the epitope peptide …],amount of soluble peptide needed to completely inhibit binding,70 µg
